# Measurements published in US20140363844.
# T1: Presegetalin A1[14,32]K23A
# T1 chain: GVPVWAFQAADVENASAPV
# T2: Presegetalin A1[14,32]N27A
# T2 chain: GVPVWAFQAKDVEAASAPV
# T3: Presegetalin A1[14,32]P16A
# T3 chain: GVAVWAFQAKDVENASAPV
# T4: Presegetalin A1[14,32]P16p
# T4 chain: GVPVWAFQAKDVENASAPV
# T5: Presegetalin A1[14,32]P31A
# T5 chain: GVPVWAFQAKDVENASAAV
# T6: Presegetalin A1[14,32]Q21A
# T6 chain: GVPVWAFAAKDVENASAPV
# T7: Presegetalin A1[14,32]S29A
# T7 chain: GVPVWAFQAKDVENAAAPV
# T8: Presegetalin A1[14,32]V17A
# T8 chain: GVPAWAFQAKDVENASAPV
# T9: Presegetalin A1[14,32]V17v
# T9 chain: GVPVWAFQAKDVENASAPV
# T10: Presegetalin A1[14,32]V32A
# T10 chain: GVPVWAFQAKDVENASAPA
# T11: Presegetalin A1[14,32]W18A
# T11 chain: GVPVAAFQAKDVENASAPV
# T12: Presegetalin A1[14,32]W18w
# T12 chain: GVPVWAFQAKDVENASAPV
# T13: Presegetalin D1[14,31]
# T13 chain: GLSFAFPAKDAENASSPV
# T14: Presegetalin D1[14,31]P20Q
# T14 chain: GLSFAFQAKDAENASSPV
# T15: Presegetalin F1[14,38]
# T15 chain: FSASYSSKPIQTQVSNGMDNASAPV
# T16: Presegetalin G1[14,31]
# T16 chain: GVKYAFQPKDSENASAPV
# T17: Presegetalin H1[14,31]
# T17 chain: GYRFSFQAKDAENASAPV
# T18: Presegetalin J1[14,36]
# T18 chain: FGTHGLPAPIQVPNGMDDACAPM
# B1: Saponaria vaccaria PCY1 (recombinant, N-terminal His6-tag, expressed in E. coli from pCB008) (protein)
# chain: MATSGFSKPLHYPPVRRDETVVDDYFGVKVADPYRWLEDPNSEETKEFVDNQEKLANSVLEECELIDKFKQKIIDFVNFPRCGVPFRRANKYFHFYNSGLQAQNVFQMQDDLDGKPEVLYDPNLREGGRSGLSLYSVSEDAKYFAFGIHSGLTEWVTIKILKTEDRSYLPDTLEWVKFSPAIWTHDNKGFFYCPYPPLKEGEDHMTRSAVNQEARYHFLGTDQSEDILLWRDLENPAHHLKCQITDDGKYFLLYILDGCDDANKVYCLDLTKLPNGLESFRGREDSAPFMKLIDSFDASYTAIANDGSVFTFQTNKDAPRKKLVRVDLNNPSVWTDLVPESKKDLLESAHAVNENQLILRYLSDVKHVLEIRDLESGALQHRLPIDIGSVDGITARRRDSVVFFKFTSILTPGIVYQCDLKNDPTQLKIFRESVVPDFDRSEFEVKQVFVPSKDGTKIPIFIAARKGISLDGSHPCEMHGYGGFGINMMPTFSASRIVFLKHLGGVFCLANIRGGGEYGEEWHKAGFRDKKQNVFDDFISAAEYLISSGYTKARRVAIEGGSNGGLLVAACINQRPDLFGCAEANCGVMDMLRFHKFTLGYLWTGDYGCSDKEEEFKWLIKYSPIHNVRRPWEQPGNEETQYPATMILTADHDDRVVPLHSFKLLATMQHVLCTSLEDSPQKNPIIARIQRKAAHYGRATMTQIAEVADRYGFMAKALEAPWID
# Experiments:
# [1] = molecular target: T1, Presegetalin A1[14,32]K23A
# [2] = molecular target: T2, Presegetalin A1[14,32]N27A
# [3] = molecular target: T3, Presegetalin A1[14,32]P16A
# [4] = molecular target: T4, Presegetalin A1[14,32]P16p
# [5] = molecular target: T5, Presegetalin A1[14,32]P31A
# [6] = molecular target: T6, Presegetalin A1[14,32]Q21A
# [7] = molecular target: T7, Presegetalin A1[14,32]S29A
# [8] = molecular target: T8, Presegetalin A1[14,32]V17A
# [9] = molecular target: T9, Presegetalin A1[14,32]V17v
# [10] = molecular target: T10, Presegetalin A1[14,32]V32A
# [11] = molecular target: T11, Presegetalin A1[14,32]W18A
# [12] = molecular target: T12, Presegetalin A1[14,32]W18w
# Presegetalin D1[14,31] = molecular target: T13, Presegetalin D1[14,31]
# [13] = molecular target: T14, Presegetalin D1[14,31]P20Q
# Presegetalin F1[14,38] = molecular target: T15, Presegetalin F1[14,38]
# Presegetalin G1[14,31] = molecular target: T16, Presegetalin G1[14,31]
# Presegetalin H1[14,31] = molecular target: T17, Presegetalin H1[14,31]
# Presegetalin J1[14,36] = molecular target: T18, Presegetalin J1[14,36]
protein,measurement,setting,value
B1,LP (linear peptide product detected by LC/MS),[1],+
same,linear segetalin A production relative to WT substrate,[1],showed a relative increase in production of linear segetalin A
same,segetalin A production relative to WT substrate,[1],"positions were found to be sensitive to substitution ... position 20, 21, 23, 24, 27, 28 and 31"
same,CP (cyclic peptide product detected by LC/MS),[2],+
same,LP (linear peptide product detected by LC/MS),[2],+
same,linear segetalin A production relative to WT substrate,[2],showed a relative increase in production of linear segetalin A
same,segetalin A production relative to WT substrate,[2],"positions were found to be sensitive to substitution ... position 20, 21, 23, 24, 27, 28 and 31"
same,CP (cyclic peptide product detected by LC/MS),[3],+
same,LP (linear peptide product detected by LC/MS),[3],+
same,CP (cyclic peptide product detected by LC/MS),[4],+
same,LP (linear peptide product detected by LC/MS),[4],-
same,CP (cyclic peptide product detected by LC/MS),[5],+
same,LP (linear peptide product detected by LC/MS),[5],+
same,linear segetalin A production relative to WT substrate,[5],showed a relative increase in production of linear segetalin A
same,segetalin A production relative to WT substrate,[5],the P31A mutant (No. 24 in Table 3) was found to yield […]11 times less segetalin A than that produced from the WT substrate
same,CP (cyclic peptide product detected by LC/MS),[6],+
same,LP (linear peptide product detected by LC/MS),[6],+
same,linear segetalin A production relative to WT substrate,[6],a relative increase in production of linear segetalin A from all mutant substrates except with No. 13 and No. 14
same,segetalin A production relative to WT substrate,[6],"positions were found to be sensitive to substitution ... position 20, 21, 23, 24, 27, 28 and 31"
same,CP (cyclic peptide product detected by LC/MS),[7],+
same,LP (linear peptide product detected by LC/MS),[7],+
same,linear segetalin A production relative to WT substrate,[7],showed a relative increase in production of linear segetalin A
same,segetalin A production relative to WT substrate,[7],"yielded a 30% increase in segetalin A production relative to wild type presegetalin A1[14,32]"
same,CP (cyclic peptide product detected by LC/MS),[8],+
same,LP (linear peptide product detected by LC/MS),[8],+
same,CP (cyclic peptide product detected by LC/MS),[9],+
same,LP (linear peptide product detected by LC/MS),[9],-
same,CP (cyclic peptide product detected by LC/MS),[10],+
same,LP (linear peptide product detected by LC/MS),[10],+
same,linear segetalin A production relative to WT substrate,[10],showed a relative increase in production of linear segetalin A
same,CP (cyclic peptide product detected by LC/MS),[11],+
same,LP (linear peptide product detected by LC/MS),[11],-
same,CP (cyclic peptide product detected by LC/MS),[12],+
same,LP (linear peptide product detected by LC/MS),[12],+
same,conversion to cyclic peptide (LC/MS),[12],the W18w mutant of presegetalin A1 was apparently relatively weakly converted to cyclic peptide
same,CP (cyclic peptide product detected by LC/MS),"Presegetalin D1[14,31]",+
same,LP (linear peptide product detected by LC/MS),"Presegetalin D1[14,31]",+
same,CP (cyclic peptide product detected by LC/MS),[13],+
same,LP (linear peptide product detected by LC/MS),[13],-
same,cyclic peptide product (LC/MS),[13],"resulted in a 5 amino acid cyclic peptide product (cyclo(GLSFA); SEQ ID NO: 77), and the substituted glutamine was not part of the final cyclic peptide"
same,CP (cyclic peptide product detected by LC/MS),"Presegetalin F1[14,38]",+
same,LP (linear peptide product detected by LC/MS),"Presegetalin F1[14,38]",-
same,CP (cyclic peptide product detected by LC/MS),"Presegetalin G1[14,31]",+
same,LP (linear peptide product detected by LC/MS),"Presegetalin G1[14,31]",-
same,CP (cyclic peptide product detected by LC/MS),"Presegetalin H1[14,31]",+
same,LP (linear peptide product detected by LC/MS),"Presegetalin H1[14,31]",-
same,CP (cyclic peptide product detected by LC/MS),"Presegetalin J1[14,36]",+
same,LP (linear peptide product detected by LC/MS),"Presegetalin J1[14,36]",-
